Consider three molecules from publication PMC3779078 (Molecular reproduction and development, 2009).

What all share (test): PAGE under mildly denaturing conditions with Western blot
For orientation: Immunoblotting shows a protein as a band on a membrane.

In data set [1] the target is Izumo 1 N-terminal domain (N), recombinant (mouse).
For data set [2], the target named is Izumo domain of Izumo 3, recombinant (mouse).
Data set [3] deals with the molecule itself.

Consider “Izumo 1 N-terminal domain (N), recombinant (domain or fragment)”, for which, in data set [1], the stoichiometry N was determined as 2.
For the molecule “Izumo domain of Izumo 3, recombinant (domain or fragment)”, the stoichiometry N in data set [2] was found to be 2.

B1: Izumo 1 entire extracellular domain (N-Ig), recombinant (domain or fragment, mouse, UniProt Q9D9J7 22-319, looked up)
chain: CIKCDQFVTDALKTFENTYLNDHLPHDIHKNVMRMVNHEVSSFGVVTSAEDSYLGAVDENTLEQATWSFLKDLKRITDSDLKGELFIKELLWMLRHQKDIFNNLARQFQKEVLCPNKCGVMSQTLIWCLKCEKQLHICRKSLDCGERHIEVHRSEDLVLDCLLSWHRASKGLTDYSFYRVWENSSETLIAKGKEPYLTKSMVGPEDAGNYRCVLDTINQGHATVIRYDVTVLPPKHSEENQPPNIITQEEHETPVHVTPQTPPGQEPESELYPELHPELYPELIPTVAQNPEKKMKTR
For B1, the “stoichiometry N” value in data set [3] stood at 2.

By stoichiometry N is commonly meant the number of molecules, sites or subunits per partner or assembly.
